{
  "source": "patent US20090258013A1",
  "about": "(Genentech, published 2009)",
  "binders": {"B1": {"name": "PVR-Fc fusion protein (Fc fusion, UniProt P15151 21-343, looked up)", "chain": "WPPPGTGDVVVQAPTQVPGFLGDSVTLPCYLQVPNMEVTHVSQLTWARHGESGSMAVFHQTQGPSYSESKRLEFVAARLGAELRNASLRMFGLRVEDEGNYTCLFVTFPQGSRSVDIWLRVLAKPQNTAEVQKVQLTGEPVPMARCVSTGGRPPAQITWHSDLGGMPNTSQVPGFLSGTVTVTSLWILVPSSQVDGKNVTCKVEHESFEKPQLLTVNLTVYYPPEVSISGYDNNWYLGQNEATLTCDARSNPEPTGYNWSTTMGPLPPFAVAQGAQLLIRPVDKPINTTLICNVTNALGARQAELTVQVKEGPPSEHSGISRN", "notes": "Found in a library of secreted proteins fused to hexahistidine or Fc tags; also called poliovirus receptor; not shown: Fc tag"}, "B2": {"name": "CD96-Fc (amino acids 1-500 of CD96 fused to the Fc region of human IgG1) (Fc fusion, UniProt P40200 22-500, looked up, not shown: a dimerising Fc or GST)", "chain": "VWEKTVNTEENVYATLGSDVNLTCQTQTVGFFVQMQWSKVTNKIDLIAVYHPQYGFYCAYGRPCESLVTFTETPENGSKWTLHLRNMSCSVSGRYECMLVLYPEGIQTKIYNLLIQTHVTADEWNSNHTIEIEINQTLEIPCFQNSSSKISSEFTYAWSVENSSTDSWVLLSKGIKEDNGTQETLISQNHLISNSTLLKDRVKLGTDYRLHLSPVQIFDDGRKFSCHIRVGPNKILRSSTTVKVFAKPEIPVIVENNSTDVLVERRFTCLLKNVFPKANITWFIDGSFLHDEKEGIYITNEERKGKDGFLELKSVLTRVHSNKPAQSDNLTIWCMALSPVPGNKVWNISSEKITFLLGSEISSTDPPLSVTESTLDTQPSPASSVSPARYPATSSVTLVDVSALRPNTTPQPSNSSMTTRGFNYPWTSSGTDTKKSVSRIPSETYSSSPSGAGSTLHDNVFTSTARAFSEVPTTANGST"}, "B3": {"name": "OTOR (library protein) (other, UniProt Q9NRC9 18-128, looked up, not shown: a dimerising Fc or GST)", "chain": "VHGIFMDRLASKKLCADDECVYTISLASAQEDYNAPDCRFINVKKGQQIYVYSKLVKENGAGEFWAGSVYGDGQDEMGVVGYFPRNLVKEQRVYQEATKEVPTTDIDFFCE"}, "B4": {"name": "CD226-Fc (amino acids 1-259 of CD226 fused to the Fc region of human IgG1) (Fc fusion, UniProt Q15762 19-259, looked up)", "chain": "EEVLWHTSVPFAENMSLECVYPSMGILTQVEWFKIGTQQDSIAIFSPTHGMVIRKPYAERVYFLNSTMASNNMTLFFRNASEDDVGYYSCSLYTYPQGTWQKVIQVVQSDSFEAAVPSNSHIVSEPGKNVTLTCQPQMTWPVQAVRWEKIQPRQIDLLTYCNLVHGRNFTSKFPRQIVSNCSHGRWSVIVIPDVTVSDSGLYRCYLQASAGENETFVMRLTVAEGKTDNQYTLFVAGGTVL", "notes": "range 1-259; also called DNAM; not shown: Fc region of human IgG1"}, "B5": {"name": "TIGIT-Fc (amino acids 1-138 of human TIGIT fused immediately preceding the Fc region of human IgG1) (Fc fusion)", "chain": "APLASGMMTGTIETTGNISAEKGGSIILQCHLSSTTAQVTQVNWEQQDQLLAICNADLGWHISPSFKDRVAPGPGLGLTLQSLTVNDTGEYFCIYHTYPDGTYTGRIFLEVLESSVAEHGARF", "notes": "Expressed in CHO cells; Biotinylated for flow cytometry and 125I-iodinated for radioligand assays; also called TIGIT-Fc fusion protein; not shown: Fc region of human IgG1"}, "B6": {"name": "gD-tagged full-length TIGIT expressed on stably transfected CHO cells (receptor)", "chain": "KYALADASLKMADPNRFRGKDLPVLMMTGTIETTGNISAEKGGSIILQCHLSSTTAQVTQVNWEQQDQLLAICNADLGWHISPSFKDRVAPGPGLGLTLQSLTVNDTGEYFCIYHTYPDGTYTGRIFLEVLESSVAEHGARFQIPLLGAMAATLVVICTAVIVVVALTRKKKALRIHSVEGDLRRKSAGQEEWSPSAPSPPGSCVQAEAAPAGLCGEQRGEDCAELHDYFNVLSYRSLGNCSFFTETG", "notes": "also called CHO-TIGIT; CHO cells expressing TIGIT"}},
  "key": {"[1]": {"molecular_target": "T1, gD-tagged full-length PVR expressed on stably transfected CHO cells (UniProt P15151 21-417, limits assumed)", "T1 construct": "whole, on cells; also called CHO-PVR; PVR-expressing CHO cells", "assay": "flow cytometry, biotinylated ligand + streptavidin-PE vs receptor expression on CHO transfectants", "description": "(§1) Fc fusion proteins were biotinylated via amine coupling using NHS-PEO4-Biotin (Pierce) in PBS. Binding of biotin-ligands was detected using phycoerythrin-conjugated streptavidin (Caltag). Mouse monoclonal antibody to gD tag (Genentech) was conjugated to AlexaFluor 647 (Invitrogen). Antibodies were conjugated to appropriate fluor labels using standard techniques. Cells were stained per the manufacturer's instructions. Prior to staining, cells were blocked with appropriate sera or purified IgG. Acquisition was performed on a FACSCalibur (BD Biosciences) and analyzed with JoFlo software (Tree Star, Inc.). Forward and side scatter gated viable cells."}, "[2]": {"molecular_target": "T2, gD-tagged full-length PVRL2 expressed on stably transfected CHO cells (UniProt Q92692 32-538, limits assumed)", "T2 construct": "whole, on cells", "assay": "flow cytometry, biotinylated ligand + streptavidin-PE vs receptor expression on CHO transfectants", "description": "as §1"}, "[3]": {"molecular_target": "gD-tagged full-length PVR expressed on stably transfected CHO cells (UniProt P15151)", "assay": "flow cytometry, biotinylated Fc-ligand on receptor-expressing CHO cells (+++ MFI = 1000-4999)"}, "[4]": {"molecular_target": "B5", "assay": "Octet biosensor, TIGIT-Fc loaded on an anti-human Fc sensor", "description": "(§2) The resulting fusion protein was transiently expressed in and purified from CHO cells using standard affinity chromatography techniques. […] Proteins were tested for binding in HBS-P (10 mM Hepes, pH 7.4; 0.15M NaCl; 0.005% Surfactant P20). […] The biosensors were washed in buffer (30 seconds), placed into wells containing 5 μg/mL protein for three minutes, and washed again for 30 seconds. The sensors were reloaded and washed after every two binding cycles."}, "[5]": {"molecular_target": "T1, gD-tagged full-length PVR expressed on …", "assay": "flow cytometry, biotinylated Fc-ligand on receptor-expressing CHO cells (+++ MFI = 1000-4999)", "description": "as §1\n(§3) Receptors were expressed on CHO cells, and all ligands were -Fc constructs. MFI was determined by flow cytometry with biotinylated Fc-ligands, after gating on receptor-positive cells. Binding affinity (Kd) was determined by competition radioligand binding assay. Kd is indicated (nM) and is the average value from at least 3 independent assays, except where indicated (*)."}, "[6]": {"molecular_target": "T3, ESAM (library protein) (UniProt Q96AP7 30-248, limits assumed)", "T3 sequence (looked up)": "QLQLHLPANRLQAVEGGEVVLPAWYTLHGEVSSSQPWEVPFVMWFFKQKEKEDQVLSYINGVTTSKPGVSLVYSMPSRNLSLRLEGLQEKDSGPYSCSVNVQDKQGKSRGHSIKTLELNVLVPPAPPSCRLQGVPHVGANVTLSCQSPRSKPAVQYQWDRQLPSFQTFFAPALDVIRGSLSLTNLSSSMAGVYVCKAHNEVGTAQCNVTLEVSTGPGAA", "assay": "Octet biosensor, TIGIT-Fc loaded on an anti-human Fc sensor", "description": "as §2"}, "[7]": {"molecular_target": "TEK (library protein) (UniProt Q02763 23-748, limits assumed)", "sequence (Q02763 23-748 limits assumed)": "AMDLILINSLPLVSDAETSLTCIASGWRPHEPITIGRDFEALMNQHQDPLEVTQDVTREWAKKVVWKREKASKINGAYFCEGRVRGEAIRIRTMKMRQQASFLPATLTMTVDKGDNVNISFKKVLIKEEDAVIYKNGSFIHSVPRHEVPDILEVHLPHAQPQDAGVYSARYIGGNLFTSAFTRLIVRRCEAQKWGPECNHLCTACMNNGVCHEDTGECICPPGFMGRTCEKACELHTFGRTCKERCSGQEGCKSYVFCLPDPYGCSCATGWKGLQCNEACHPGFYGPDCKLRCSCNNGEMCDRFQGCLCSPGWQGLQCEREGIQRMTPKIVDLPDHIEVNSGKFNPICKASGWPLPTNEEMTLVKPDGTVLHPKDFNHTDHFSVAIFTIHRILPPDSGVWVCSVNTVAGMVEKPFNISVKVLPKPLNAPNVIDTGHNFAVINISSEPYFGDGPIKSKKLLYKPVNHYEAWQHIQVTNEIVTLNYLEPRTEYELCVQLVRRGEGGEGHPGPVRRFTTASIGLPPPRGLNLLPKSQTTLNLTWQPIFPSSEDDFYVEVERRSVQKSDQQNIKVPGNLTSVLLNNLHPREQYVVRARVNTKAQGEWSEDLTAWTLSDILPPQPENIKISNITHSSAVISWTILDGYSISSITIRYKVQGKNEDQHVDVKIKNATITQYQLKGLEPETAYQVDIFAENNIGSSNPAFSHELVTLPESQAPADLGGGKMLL", "assay": "Octet biosensor, TIGIT-Fc loaded on an anti-human Fc sensor", "description": "as §2"}, "[8]": {"molecular_target": "T4, TNFRSF10C (library protein) (UniProt O14798 26-236, limits assumed)", "T4 sequence (looked up)": "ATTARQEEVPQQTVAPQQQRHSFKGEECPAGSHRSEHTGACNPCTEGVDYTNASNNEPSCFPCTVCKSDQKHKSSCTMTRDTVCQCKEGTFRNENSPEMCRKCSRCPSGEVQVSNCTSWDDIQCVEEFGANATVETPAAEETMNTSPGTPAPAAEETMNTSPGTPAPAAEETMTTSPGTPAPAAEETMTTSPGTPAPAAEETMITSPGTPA", "assay": "Octet biosensor, TIGIT-Fc loaded on an anti-human Fc sensor", "description": "as §2"}, "[9]": {"molecular_target": "T5, IGFBP4 (library protein) (UniProt P22692 22-258)", "T5 sequence (looked up)": "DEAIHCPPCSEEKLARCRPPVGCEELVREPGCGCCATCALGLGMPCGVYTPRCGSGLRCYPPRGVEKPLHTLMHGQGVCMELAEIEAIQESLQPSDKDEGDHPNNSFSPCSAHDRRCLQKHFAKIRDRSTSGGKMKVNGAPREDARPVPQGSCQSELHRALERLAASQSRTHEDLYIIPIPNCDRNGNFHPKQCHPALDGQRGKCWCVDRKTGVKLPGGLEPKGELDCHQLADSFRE", "assay": "Octet biosensor, TIGIT-Fc loaded on an anti-human Fc sensor", "description": "as §2"}, "[10]": {"molecular_target": "T6, IL-19 (library protein) (UniProt Q9UHD0 25-177)", "T6 sequence (looked up)": "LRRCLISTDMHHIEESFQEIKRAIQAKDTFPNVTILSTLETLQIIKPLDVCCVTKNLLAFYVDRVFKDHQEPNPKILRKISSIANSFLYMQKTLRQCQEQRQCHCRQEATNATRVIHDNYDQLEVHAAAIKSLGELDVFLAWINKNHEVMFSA", "assay": "Octet biosensor, TIGIT-Fc loaded on an anti-human Fc sensor", "description": "as §2"}, "[11]": {"molecular_target": "T7, gD-tagged full-length CD226 expressed on stably transfected CHO cells (UniProt Q15762 19-336, limits assumed)", "T7 construct": "whole, on cells; also called CHO-CD226", "assay": "flow cytometry, biotinylated ligand + streptavidin-PE vs receptor expression on CHO transfectants", "description": "as §1"}, "[12]": {"molecular_target": "T8, gD-tagged full-length CD96 expressed on stably transfected CHO cells (UniProt P40200 22-585, limits assumed)", "T8 construct": "whole, on cells; also called CHO-CD96; CD96-expressing CHO cells", "assay": "flow cytometry, biotinylated ligand + streptavidin-PE vs receptor expression on CHO transfectants", "description": "as §1"}, "[13]": {"molecular_target": "T1, gD-tagged full-length PVR expressed on …", "assay": "radioligand binding, iodinated TIGIT-Fc displaced by unlabeled TIGIT-Fc on PVR-expressing CHO cells", "description": "(§4) Plasmids were transfected into CHO cells using Lipofectamine LTX (Invitrogen). Expression of gD-tagged proteins was verified by flow cytometry using the Alexa-647 anti-gD conjugate. Stably-transfected cell lines were sorted twice by FACS for purity before use. Fc-fusion proteins constructed as described above were iodinated (¹²⁵I) using the Iodogen method. Binding studies were carried out on stable transfectants in triplicate with 0.1-3 nM iodinated ligand. […] Cell suspensions were harvested onto nitrocellulose membranes (Millipore) and washed extensively.\n(§5) Non-specific binding was determined using 2000-fold excess cold ligand and subtracted from total binding."}, "[14]": {"molecular_target": "B1", "assay": "competition radioligand binding, 125I Fc-ligand on receptor-expressing CHO cells, Scatchard", "description": "as §4, §3"}, "[15]": {"molecular_target": "B5", "assay": "flow cytometry, biotinylated ligand + streptavidin-PE vs receptor expression on CHO transfectants", "description": "as §1"}, "[16]": {"molecular_target": "B1", "assay": "competition radioligand binding on CHO cells; upper end tied by Table 6 to PVR-Fc on CHO-TIGIT; PVR-Fc ligand on CHO-TIGIT (upper end of the range)", "description": "as §4, §5"}},
  "data": [
    {"binder": "B1", "values": [
      {"measurement": "binding result", "setting": "[1]", "result": "no binding"},
      {"measurement": "binding result", "setting": "[2]", "result": "no binding"}
    ]},
    {"binder": "B2", "values": [
      {"measurement": "MFI", "setting": "[3]", "result": "1000 to 5000", "unit": "mfi"}
    ]},
    {"binder": "B3", "values": [
      {"measurement": "binding result", "setting": "[4]", "result": "no binding"}
    ]},
    {"binder": "B4", "values": [
      {"measurement": "MFI", "setting": "[5]", "result": "1000 to 5000", "unit": "mfi"}
    ]},
    {"binder": "B5", "values": [
      {"measurement": "binding result", "setting": "[6]", "result": "no binding"},
      {"measurement": "binding result", "setting": "[7]", "result": "no binding"},
      {"measurement": "binding result", "setting": "[8]", "result": "no binding"},
      {"measurement": "binding result", "setting": "[9]", "result": "no binding"},
      {"measurement": "binding result", "setting": "[10]", "result": "no binding"},
      {"measurement": "MFI", "setting": "[5]", "result": "1000 to 5000", "unit": "mfi"},
      {"measurement": "binding result", "setting": "[11]", "result": "no binding"},
      {"measurement": "binding result", "setting": "[12]", "result": "no binding"},
      {"measurement": "IC50 (read off the curve)", "setting": "[13]", "result": "~4", "unit": "nM"}
    ]},
    {"binder": "B6", "values": [
      {"measurement": "Kd", "setting": "[14]", "result": 3.15, "unit": "nM"},
      {"measurement": "binding result", "setting": "[15]", "result": "no binding"},
      {"measurement": "Kd", "setting": "[16]", "result": "1 to 3", "unit": "nM"}
    ]}
  ]
}
